In test [1] the target is T1, human SIRPA Fc fusion antigen (human, UniProt P78324 31-373).
T1 construct: heterologous signal peptide; not shown: human IgG1 Fc
Put plainly: ForteBio IgG avid.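 Further: ForteBio sensor-based avid binding of anti-SIRPA antibodies in IgG format, with the binding partner in solution at 100 nM.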 In general terms: Biolayer interferometry detects binding as a change in optical thickness at a sensor tip.

The target in test [2] is T2, human SIRPβ1 Fc fusion antigen (human, UniProt O00241 30-371).
T2 construct: not shown: human IgG1 Fc
Put plainly: ForteBio IgG avid.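 Further: ForteBio sensor-based avid binding of anti-SIRPA antibodies in IgG format, with the binding partner in solution at 100 nM.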

Test [3] has as its target T1, human SIRPA Fc fusion antigen. The experiment in a line: ForteBio Fab monovalent.

By Kd is commonly meant the equilibrium constant for the complex coming apart. A low value points to tighter binding.

T2 sequence (O00241 30-371 limits assumed): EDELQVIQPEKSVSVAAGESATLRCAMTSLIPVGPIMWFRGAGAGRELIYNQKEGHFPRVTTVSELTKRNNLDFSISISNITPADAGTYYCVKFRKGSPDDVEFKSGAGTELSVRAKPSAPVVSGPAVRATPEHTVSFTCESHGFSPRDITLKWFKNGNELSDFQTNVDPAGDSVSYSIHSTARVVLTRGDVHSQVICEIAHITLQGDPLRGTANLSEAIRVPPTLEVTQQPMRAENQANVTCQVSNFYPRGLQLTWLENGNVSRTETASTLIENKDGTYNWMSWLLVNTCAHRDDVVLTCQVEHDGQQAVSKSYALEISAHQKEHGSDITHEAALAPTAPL

B1: SA-56-85 (antibody, V domains shown)
VH: EVQLLESGGGVVQPGRSLGLSCAASGSTFSYYGMSWVRQAPGKGLEWVASIWVDGSNKYYADSVKGRFTISRDNSKSTLYLQMNSLRAEDTAVYYCARGVETYSGPNWFDPWGQGTLVTVSS
VL: DIQMTQSPSSVSASVGDRVTITCRASQGISSWLAWYQQKPGKAPKLLIYAASSLQSGVPSRFSGSGSGTDFTLTISSLQPEDFATYYCQQAIYFPITFGGGTKVENQ
notes: IgG; also called SA-85
Regarding B1, the dissociation constant Kd in test [1] was determined as 0.341 nM. Moreover, the binding result in test [2] is “no binding (tested: 100 nM)”.

B2: SA-56-91 (antibody, V domains shown)
VH: EVQLVESGGGVVQPGRSLRLSCAASGFTFAHYGMAWVRQAPGKGLEWVASIWVDGSNKYYADSVKGRFTISRDNSKNTLYLQMNSLRAEDTAVYYCATAVETYSGPNWFDPWGQGTLVTVSS
VL: DIQMTQSPSSVSASVGDRVTITCRASQGISSWLAWYQQKPGKAPKLLIYAASSLQSGVPSRFSGSGSGTDFTLTISSLQPEDFATYYCQQAIYFPITFGGGTKVEIK
notes: IgG
Take B2: binding in test [1] was characterised by a dissociation constant (Kd) of 0.412 nM. Further, in test [2], the binding result is “no binding (tested: 100 nM)”.

B3: SA-56-88 (antibody, V domains shown)
VH: EVQLVESGGGVVQPGRSLRLSCAASGFTFSYYGMSWVRQAPGKGLEWVASIWVDGSNKYYADSAKGRFTISRDNSKNTLYLQMNSLRAEDTAVYYCAEGKETYSGPNWFDPWGQGTLVTVSS
VL: DIQMTQSPSSVSASVGDRVTITCRASQGISSWLAWYQQKPGKAPKLLIYAASSLQSGVPSRFSGSGSGTDFTLTISSLQPEDFATYYCQQAIYFPITFGGGTKVEIK
notes: IgG
In the case of B3, in test [1], the Kd is 0.379 nM. Also, the binding result in test [2] is “no binding (tested: 100 nM)”.

B4: SA-56-86 (antibody, V domains shown)
VH: QVQLVESGGGVVQPGGSLRLSCAASGFTFSYYGMSWVRQAPGKGLEWVASIWVDGSSKYYADSVKGRFTISRDNSKNTLYLQMNSLRAEDTAVYYCARGVETYSGPNWFDPWGQGTLVTVSS
VL: DIQMTQSPSSVSASVGDRVTITCRASQGISSWLAWYQQKPGKAPKLLIYAASSLQSGVPSRFSGSGSGTDFTLTISSLQPEDFATYYCQQAIYFPITFGGGTKVEIK
notes: IgG
For B4, the dissociation constant (Kd) in test [1] is 0.339 nM; in test [2], 12.4 nM.

B5: SA-56-89 (antibody, V domains shown)
VH: EVQLVESGGGVVQPGGSLRLSCAASGFTFSYYGMSWVRQAPGKGLEWVASIWVDGSNKYYADSVKGRFTVSRDNSKNTLYLQMDSLRAEDTAVYYCARGVETYSGPNWFDPWGQGTLVTVSS
VL: DIQMTQSPSSVSASVGDRVTITCRASQGISSWLAWYQQKPGKAPKLLIYAASSLQSGVPSRFSGSGSGTDFTLTISSLQPEDFATYYCQQAIYFPITFGGGTKVEIK
notes: IgG; also called SA-89
In turn, B5 yielded an equilibrium dissociation constant (Kd) in test [1] of 0.415 nM. Moreover, the binding result in test [2] is given as “no binding (tested: 100 nM)”.

B6: SA-56-96 (antibody, V domains shown)
VH: EVQLLESGGGVVQPGRSLRLSCAASGFTFSSYAMGWVRQAPGKGLEWVAVIWVDGSLKYYADSVKGRFTISRDNSKNTLYLQMNSLRAEDTAVYYCATGRETYSGPNWFDPWGQGTLVTVSS
VL: DIQMTQSPSSVSASVGDRVTITCRASQGISSWLAWYQQKPGKAPKLLIYAASSLQSGVPSRFSGSGSGTDFTLTISSLQPEDFATYYCQQAIYFPITFGGGTKVEIK
notes: IgG
Turning to B6, the dissociation constant (Kd) in test [1] is 1.04 nM. Also, the binding result in test [2] is reported as “no binding (tested: 100 nM)”.

B7: SA-56-93 (antibody, V domains shown)
VH: EVQLLESGGGVVQPGRSLRLSCAASGFTFSYYGMSWVRQAPGKGLEWVASIWVDGSNKYYADSVKGRFTISRDNSKNALYLQMNSLRAEDTAVYYCAVSRETYSGPNWFDPWGQGTLVTVSS
VL: DIQMTQSPSSVSASVGDRVTITCRASQGISSWLAWYQQKPGKAPKLLIYAASSLQSGVPSRFSGSGSGTDFTLTISSLQPEDFATYYCQQAIYFPITFGGGTKVEIK
notes: IgG
With B7, the equilibrium dissociation constant (Kd) in test [1] is 0.862 nM. The binding result in test [2] is listed as “no binding (tested: 100 nM)”.

B8: SA-56-92 (antibody, V domains shown)
VH: EVQLVESGGGVVQPGRSLRLSCAASGFTFSYYGMSWVRQAPGKGLEWVASIWVDGSNKYYADSVKGRFTISRDNSKNTLYLQMDSLRAEDTAVYYCATGVETYSGPNWFDPWGQGTLVTVSS
VL: DIQMTQSPSSVSASVGDRVTITCRASQGISSWLAWYQQKPGKAPKLLIYAASSLQSGVPSRFSGSGSGTDFTLTISSLQPEDFATYYCQQAIYFPITFGGGTKVEIK
notes: IgG
Turning to B8, in test [1], binding was characterised by a dissociation constant (Kd) of 0.365 nM. Moreover, in test [2], the binding result is “no binding (tested: 100 nM)”.

B9: SA-56-87 (antibody, V domains shown)
VH: EVQLVESGGGVVQPGRSLRLSCAASGFTFSYYGMSWVRQAPGKGLEWVASIWVDGSNKYYADSVKGRFTISRDNSKNTLYLQMNSLRAEDTAVYYCAFGLETYSGPNWFDPWGQGTLVTVSS
VL: DIQMTQSPSSVSASVGDRVTITCRASQGISSWLAWYQQKPGKAPKLLIYAASSLQSGVPSRFSGSGSGTDFTLTISSLQPEDFATYYCQQAIYFPITFGGGTKVEIK
notes: IgG
With B9, the Kd in test [1] worked out at 0.396 nM. In addition, the binding result in test [2] is “no binding (tested: 100 nM)”.

B10: SA-56-95 (antibody, V domains shown)
VH: EVQLLESGGGVVQPGRSLRLSCAASGFTFAHYGMAWVRQAPGKGLEWVAVIWVDGSPKYYADSVKGRFTISRDNSKNTLYLQMNSLRAEDTAVYYCAVARETYSGPNWFDPWGQGTLVTVSS
VL: DIQMTQSPSSVSASVGDRVTITCRASQGISSWLAWYQQKPGKAPKLLIYAASSLQSGVPSRFSGSGSGTDFTLTISSLQPEDFATYYCQQAIYFPITFGGGTKVEIK
notes: IgG
Regarding B10, the Kd in test [1] was determined as 1.06 nM. For the same molecule, in test [2], the binding result was “no binding (tested: 100 nM)”.

B11: SA-56-90 (antibody, V domains shown)
VH: QVQLVESGGGVVQPGRSLRLSCAASGSTFSHYGMSWVRQAPGKGLEWVASIWVDGSNKYYADSVKGRFTISRDNSKNTLYLQMDSLRAEDTAVYYCARGVETYSGPNWFDPWGQGTLVTVSS
VL: DIQMTQSPSSVSASVGDRVTITCRASQGISSWLAWYQQKPGKAPKLLIYAASSLQSGVPSRFSGSGSGTDFTLTISSLQPEDFATYYCQQAIYFPITFGGGTKVEIK
notes: IgG; also called SA-90
In turn, B11 came in with a dissociation constant Kd in test [1] of 0.378 nM. Also, the binding result in test [2] was “no binding (tested: 100 nM)”.

B12: SA-8-64 Fab (Fab, V domains shown)
VH: QVQLVESGGGLVKPGGSLRLSCAASGFTFSSYSMHWVRQAPGKGLEWVSSISSSDSWIYYADSVKGRFTISRDNAKNSLYLQMNSLRAEDTAVYYCAKEPRSYWHGYGMDVWGQGTTVTVSS
VL: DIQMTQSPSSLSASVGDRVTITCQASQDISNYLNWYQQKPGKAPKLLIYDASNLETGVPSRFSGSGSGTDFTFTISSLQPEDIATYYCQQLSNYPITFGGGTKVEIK
notes: papain Fab
For B12, binding in test [3] was put at a Kd of 27.7 nM.

B13: SA-8-64 (antibody, V domains shown)
VH: QVQLVESGGGLVKPGGSLRLSCAASGFTFSSYSMHWVRQAPGKGLEWVSSISSSDSWIYYADSVKGRFTISRDNAKNSLYLQMNSLRAEDTAVYYCAKEPRSYWHGYGMDVWGQGTTVTVSS
VL: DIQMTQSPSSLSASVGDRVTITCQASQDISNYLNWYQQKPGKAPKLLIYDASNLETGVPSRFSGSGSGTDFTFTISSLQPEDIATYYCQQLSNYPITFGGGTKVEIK
notes: IgG
For B13, the values for the dissociation constant Kd in test [1] and in test [2] were 0.952 nM and 8.36 nM, respectively.

B14: SA-8-62 Fab (Fab, V domains shown)
VH: QVQLVESGGGLVKPGGSLRLSCAASGFTFSSYSMHWVRQAPGKGLEWVSSISSSDSWIYYADSVKGRFTISRDNAKNSLYLQMDSLRAEDTAVYYCAKERVDYWHGYGMDVWGQGTTVTVSS
VL: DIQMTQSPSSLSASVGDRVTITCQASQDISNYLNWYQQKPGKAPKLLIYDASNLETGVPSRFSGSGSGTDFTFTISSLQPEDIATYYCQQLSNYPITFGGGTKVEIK
notes: papain Fab
B14 registered a Kd in test [3] of 8.92 nM.

B15: SA-8-62 (antibody, V domains shown)
VH: QVQLVESGGGLVKPGGSLRLSCAASGFTFSSYSMHWVRQAPGKGLEWVSSISSSDSWIYYADSVKGRFTISRDNAKNSLYLQMDSLRAEDTAVYYCAKERVDYWHGYGMDVWGQGTTVTVSS
VL: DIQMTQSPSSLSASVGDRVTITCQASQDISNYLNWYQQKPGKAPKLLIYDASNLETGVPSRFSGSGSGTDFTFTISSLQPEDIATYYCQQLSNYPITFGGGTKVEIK
notes: IgG
For B15, the Kd was 0.371 nM in test [1] and 4.67 nM in test [2].

B16: SA-8-67 Fab (Fab, V domains shown)
VH: EVQLVESGGGLVKPGGSLRLSCAASGFTFSSYSMHWVRQAPGKGLEWVSSISSSPSHIYYADSVKGRFTISRDNAKNSLYLQMNSLRAEDTAVYYCAKEPRSYWHGYGMDVWGQGTTVTVSS
VL: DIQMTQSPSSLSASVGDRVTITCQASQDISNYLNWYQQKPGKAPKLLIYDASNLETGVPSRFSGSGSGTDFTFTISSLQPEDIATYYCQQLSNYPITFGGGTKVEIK
notes: papain Fab
In the case of B16, in test [3], the Kd worked out at 131 nM.

B17: SA-8-67 (antibody, V domains shown)
VH: EVQLVESGGGLVKPGGSLRLSCAASGFTFSSYSMHWVRQAPGKGLEWVSSISSSPSHIYYADSVKGRFTISRDNAKNSLYLQMNSLRAEDTAVYYCAKEPRSYWHGYGMDVWGQGTTVTVSS
VL: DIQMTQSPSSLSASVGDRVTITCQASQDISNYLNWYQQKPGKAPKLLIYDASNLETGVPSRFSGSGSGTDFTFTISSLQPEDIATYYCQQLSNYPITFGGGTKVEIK
notes: IgG
With B17, the dissociation constant Kd in test [1] was found to be 1.84 nM; in test [2] it was 14.2 nM.

B18: SA-13-68 (antibody, V domains shown)
VH: EVQLLESGGGLVQPGGSLRLSCAASGFTFTEYAMSWVRQAPGKRLEWVSAISGSGGSTYYADSVKGRFTISRDNSKNTLYLQMSSLRAEDTAVYYCARDNIQWGPHFYWGQGTLVTVSS
VL: DIQMTQSPSSLSASVGDRVTITCRASQSISSYLNWYQQKPGKAPKLLIYAASSLQSGVPSRFSGSGSGTDFTLTISSLQPEDFATYYCQQGYIYPPTFGGGTKVEIK
notes: IgG
B18: the dissociation constant Kd in test [1] is 1.92 nM; in test [2] it was 3.45 nM.

B19: SA-56-94 (antibody, V domains shown)
VH: EVQLVESGGGVVQPGRSLRLSCAASGFTFSYYGMSWVRQAPGKGLEWVASIWVDGSNKYYADSVKGRFTISRDNSKNTLYLQMNSLRAEDTAVYYCAVGTETYSGPNWFDPWGQGTLVTVSS
VL: DIQMTQSPSSVSASVGDRVTITCRASQGISSWLAWYQQKPGKAPKLLIYAASSLQSGVPSRFSGSGSGTDFTLTISSLQPEDFATYYCQQAIYFPITFGGGTKVEIK
notes: IgG; also called SA-94
Molecule B19 came in with an equilibrium dissociation constant (Kd) in test [1] of 0.566 nM. In addition, in test [2], the binding result is “no binding (tested: 100 nM)”.

B20: SA-13-68 Fab (Fab, V domains shown)
VH: EVQLLESGGGLVQPGGSLRLSCAASGFTFTEYAMSWVRQAPGKRLEWVSAISGSGGSTYYADSVKGRFTISRDNSKNTLYLQMSSLRAEDTAVYYCARDNIQWGPHFYWGQGTLVTVSS
VL: DIQMTQSPSSLSASVGDRVTITCRASQSISSYLNWYQQKPGKAPKLLIYAASSLQSGVPSRFSGSGSGTDFTLTISSLQPEDFATYYCQQGYIYPPTFGGGTKVEIK
notes: papain Fab
As to B20, binding in test [3] was characterised by a dissociation constant (Kd) of 81.5 nM.

(Values after patent publication US20240270866A1 (Alector, published 2024).)
